Laboratory results taken from patent US20190127480A1 (Regeneron, published 2019).

Biological target: human CD3 expressed on cells (Jurkat cells; human T-cells of PBMC) (human, UniProt P09693 23-182; P20963 22-164)
Assay: cell-based or functional assay

Chain of human CD3 expressed on cells (Jurkat cells; human T-cells of PBMC) (chain, as listed by the source, chain 1 of 4): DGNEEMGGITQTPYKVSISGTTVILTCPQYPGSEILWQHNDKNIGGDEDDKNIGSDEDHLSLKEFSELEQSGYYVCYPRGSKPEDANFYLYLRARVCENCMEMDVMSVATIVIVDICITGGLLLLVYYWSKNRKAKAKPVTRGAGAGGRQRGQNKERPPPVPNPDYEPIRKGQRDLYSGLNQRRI
Chain of human CD3 expressed on cells (Jurkat cells; human T-cells of PBMC) (chain, as listed by the source, chain 2 of 4): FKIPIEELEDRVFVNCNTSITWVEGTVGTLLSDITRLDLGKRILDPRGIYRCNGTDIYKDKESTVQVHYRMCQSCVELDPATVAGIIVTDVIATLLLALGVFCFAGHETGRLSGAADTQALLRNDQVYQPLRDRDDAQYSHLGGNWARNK
Chain of human CD3 expressed on cells (Jurkat cells; human T-cells of PBMC) (P09693 23-182, chain 3 of 4): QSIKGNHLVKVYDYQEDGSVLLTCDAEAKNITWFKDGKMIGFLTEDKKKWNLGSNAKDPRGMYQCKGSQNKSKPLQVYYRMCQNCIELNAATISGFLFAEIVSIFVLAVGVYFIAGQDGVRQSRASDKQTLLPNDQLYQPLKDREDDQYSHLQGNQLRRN
Chain of human CD3 expressed on cells (Jurkat cells; human T-cells of PBMC) (P20963 22-164, chain 4 of 4): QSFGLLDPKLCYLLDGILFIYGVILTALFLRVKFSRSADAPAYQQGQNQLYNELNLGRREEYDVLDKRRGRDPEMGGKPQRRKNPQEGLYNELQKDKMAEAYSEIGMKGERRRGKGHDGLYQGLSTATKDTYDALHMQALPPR

Binder | U937 Cytotoxicity Human T-cells
H2M2689N (antibody, mouse IgG2, V domains shown) VH: QVQLVESGGGVVQPGRSLRLSCAASGFTFSRKGMHWVRQAPVKGLEWVAVISYDGSNKYYADSVKGRFTISRDNSKNTLYLQMNSLTAEDTAVYYCAKEGGHDYGGTFDYWGQGTLVTVSS VL: not shown | 0 M

Biological target: T1, human PSMA expressed with an N-terminal hexahistidine tag (6h.hPSMA, R&D) (human, UniProt Q04609 44-750)
T1 construct: Bought soluble protein; also called soluble human PSMA; human PSMA protein
Assay: SPR Biacore T-200, 37 C, antibody-capture (anti-human Fc), 6h.hPSMA as analyte
Experimental: In this example, anti-PSMA antibodies were assessed for their ability to bind to human PSMA. […] Measurements were conducted on a Biacore™ T-200 instrument (GE Healthcare).
Briefly, a CM5 Biacore™ sensor surface was derivatized via amine coupling with a monoclonal mouse anti-human Fc antibody (GE, # BR-1008-39) or monoclonal goat anti-mouse Fc antibody (GE, # BR-1008-38) to capture purified anti-PSMA antibodies. Binding studies were performed in HBSP++ buffer composed of 0.01M HEPES, 0.15M NaCl, 2 mM Ca²⁺, 2 mM Mg²⁺, 0.05% v/v Surfactant P20, pH7.4. Varying concentrations of human PSMA expressed with an N-terminal hexahistidine tag (6h.hPSMA, R&D) prepared in HBSP++ running buffer (ranging from 50 to 0.78 nM, 4-fold dilutions) were injected over the anti-PSMA antibody captured surface at a flow rate of 30 μL/minute. Antibody-reagent association was monitored for 2 minutes while dissociation in HBSP++ running buffer was monitored for 8 minutes.
Kinetic association (kₐ) and dissociation (kd) rate constants were determined by fitting the real-time sensorgrams to a 1:1 binding model using Scrubber 2.0c curve fitting software. Binding dissociation equilibrium constants (KD) and dissociative half-lives (t½) were calculated from the kinetic rate constants as: KD (M)=kd/kₐ; and t_{1/2} (min)=(ln 2/(60*kd).

T1 sequence (Q04609 other isoform, or with tags, fused parts or gaps limits assumed): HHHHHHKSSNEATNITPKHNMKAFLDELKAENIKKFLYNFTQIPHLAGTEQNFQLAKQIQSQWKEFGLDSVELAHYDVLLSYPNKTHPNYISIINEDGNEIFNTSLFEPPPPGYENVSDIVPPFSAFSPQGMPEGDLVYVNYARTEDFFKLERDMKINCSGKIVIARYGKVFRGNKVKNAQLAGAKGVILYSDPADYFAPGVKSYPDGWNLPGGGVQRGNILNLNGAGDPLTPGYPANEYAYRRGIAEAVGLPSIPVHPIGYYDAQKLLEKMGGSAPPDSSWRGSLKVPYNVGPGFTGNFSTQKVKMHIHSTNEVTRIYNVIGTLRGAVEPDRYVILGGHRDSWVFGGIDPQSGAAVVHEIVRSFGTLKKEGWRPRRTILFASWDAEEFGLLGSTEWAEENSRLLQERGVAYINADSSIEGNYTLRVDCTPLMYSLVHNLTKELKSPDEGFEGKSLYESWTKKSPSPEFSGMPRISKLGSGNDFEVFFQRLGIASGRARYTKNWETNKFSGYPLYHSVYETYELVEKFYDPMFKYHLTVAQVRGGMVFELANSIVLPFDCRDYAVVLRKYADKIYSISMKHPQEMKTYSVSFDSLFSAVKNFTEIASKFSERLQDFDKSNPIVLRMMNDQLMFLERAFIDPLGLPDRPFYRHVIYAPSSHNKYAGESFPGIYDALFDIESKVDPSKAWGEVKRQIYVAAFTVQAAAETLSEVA

Binder | Kd | koff | kon | t1/2
H1H3465P (antibody, human IgG1, V domains shown, human IgG1; also called PSMA-VH-3465 (its HCVR)) VH: QVQLVESGGGVVQPGRSLRLSCAASGFTFITYGMHWVRQAPGKGLEWVAIIYYDESNKYYADSVKGRFTISRDISKNTLYLQMNGLRAEDTAVYYCARAPRVAVEEDYSYYYGMDVWGQGTTVTVSS VL: DIQMTQSPSSLSASVGDRVTITCRASQGIRNDLGWYQQKPGRAPKRLIYGASNLQSGVPSRFSGSGSGTEFTLTISSLQPEDFATYYCLQHNSHPYTFGQGTKLEIK | 0.227 nM | 6.06e-05 s⁻¹ | 267000 M⁻¹ s⁻¹ | 191 min
H1H11797P2 (antibody, human IgG1, V domains shown, human IgG1) VH: QVQLVESGGGVVQPGRSLRLSCAASGFSFSGYGMHWVRQAPGKGLEWVAVTWYDGSNKYYADSVKGRFTISRDNSKNTLYLQMNSLRAEDTAVYYCARDGNWGGPYWYFDLWGRGTLVTVSS VL: DIQMTQSPSSLSASVGDSVTITCRASQSINNYLNWYQQKPGKAPKLLIYTASSLLSGVPSRFSGSGSGTDFTLTISGLHPEDFATYFCQQSFSTPPITFGQGTRLDIK | 3.74 nM | 0.00063 s⁻¹ | 168000 M⁻¹ s⁻¹ | 18.3 min
H1H11800P2 (antibody, human IgG1, V domains shown, human IgG1) VH: QVQLVESGGGVVQPGRSLRLSCAASGFTFSSYGMHWVRQAPGKGLEWVAVISYAGNNKYYVDSVKGRFTISRDNSKNTLYLQMNSLRAEDTAVYYCAKDPYYDFLTGSDYFDYWGQGTLVTVSS VL: DIQMTQSPSSLSASVGDSVTITCRASQSINNYLNWYQQKPGKAPKLLIYTASSLLSGVPSRFSGSGSGTDFTLTISGLHPEDFATYFCQQSFSTPPITFGQGTRLDIK | 0.163 nM | 4.1e-05 s⁻¹ | 251000 M⁻¹ s⁻¹ | 282 min
H1H11810P2 (antibody, human IgG1, V domains shown, human IgG1; also called PSMA-VH-11810 (its HCVR)) VH: QVQLVESGGGVVQPGRSLRLSCAASGFTFSSYGMHWVRQAPGKGLEWVAVISYAGNNKYYADSVKGRFTVSRDNSKKTLYLQMNSLRSEDTAVYYCAKDSYYDFLTDPDVLDIWGQGTMVTVSS VL: DIQMTQSPSSLSASVGDSVTITCRASQSINNYLNWYQQKPGKAPKLLIYTASSLLSGVPSRFSGSGSGTDFTLTISGLHPEDFATYFCQQSFSTPPITFGQGTRLDIK | ≤ 0.0199 nM | ≤ 1e-05 s⁻¹ | 503000 M⁻¹ s⁻¹ | ≥ 1160 min
H1H11837P2 (antibody, human IgG1, V domains shown, human IgG1) VH: QVQLVESGGGVVQPGRSLRLSCAASGFTFSSYGMHWVRQAPGKGLEWVTFISYDGNNKYYSDSVKGRFAISRDNSKNTLYLQMNSLRAEDTSVYFCAKDQYYDFLTDFGVFDYWGQGTLVTVSS VL: DIQMTQSPSSLSASVGDSVTITCRASQSINNYLNWYQQKPGKAPKLLIYTASSLLSGVPSRFSGSGSGTDFTLTISGLHPEDFATYFCQQSFSTPPITFGQGTRLDIK | 1.66 nM | 0.000734 s⁻¹ | 441000 M⁻¹ s⁻¹ | 15.7 min
H1H11792P2 (antibody, human IgG1, V domains shown, human IgG1) VH: QVQLVESGGGVVQPGRSLRLSCAASGFTFSSYGMHWVRQPPGKGLEWVAIMSYDGSNKYYADSVKGRFTISRDNSKNTLYLQMNSLRVEDTAVYYCAKDQYYDFLTFDYTLDYWGQGTLVTVSS VL: DIQMTQSPSSLSASVGDSVTITCRASQSINNYLNWYQQKPGKAPKLLIYTASSLLSGVPSRFSGSGSGTDFTLTISGLHPEDFATYFCQQSFSTPPITFGQGTRLDIK | 0.205 nM | 9.7e-05 s⁻¹ | 473000 M⁻¹ s⁻¹ | 119 min
H1H11803P2 (antibody, human IgG1, V domains shown, human IgG1) VH: QVQLVESGGGVVQPGRSLRLSCAASGFTFSSYGMHWVRQAPGKGLEWVAVIWYDGNNKYYADSVKGRFTISRDNSKKTLYLQMTSLRAEDTAVYYCARDQYYDILTADNTLDYWGQGTLVTVSS VL: DIQMTQSPSSLSASVGDSVTITCRASQSINNYLNWYQQKPGKAPKLLIYTASSLLSGVPSRFSGSGSGTDFTLTISGLHPEDFATYFCQQSFSTPPITFGQGTRLDIK | 1.33 nM | 0.000608 s⁻¹ | 457000 M⁻¹ s⁻¹ | 19 min
H1H11836P2 (antibody, human IgG1, V domains shown, human IgG1) VH: QVQLVESGGGVVQPGRSLRLSCAASGFTFRSYGMHWVRQAPGKGLEWVAFISYDESNKHQADSVKGRFTISRDNSKNTLYLQMNSLRAEDTAVYFCAKDQYYDFLTAYDTLDYWGQGTLVTVSS VL: DIQMTQSPSSLSASVGDSVTITCRASQSINNYLNWYQQKPGKAPKLLIYTASSLLSGVPSRFSGSGSGTDFTLTISGLHPEDFATYFCQQSFSTPPITFGQGTRLDIK | 0.855 nM | 0.00028 s⁻¹ | 327000 M⁻¹ s⁻¹ | 41.3 min
H1H11804P2 (antibody, human IgG1, V domains shown, human IgG1) VH: QVQLVESGGGVVQPGRSLRLSCAASGFTFISYGMHWVRQAPGKGLEWVAVISYDGSNKYYADSVKGRFTISRDNSKNTLFLQMNSLRAEDTAVYYCAKNYDFWNGYVGYYGMDVWGQGTTVTVSS VL: DIQMTQSPSSLSASVGDSVTITCRASQSINNYLNWYQQKPGKAPKLLIYTASSLLSGVPSRFSGSGSGTDFTLTISGLHPEDFATYFCQQSFSTPPITFGQGTRLDIK | 39.4 nM | 0.000801 s⁻¹ | 20300 M⁻¹ s⁻¹ | 14.4 min
H1H11805P2 (antibody, human IgG1, V domains shown, human IgG1) VH: EVQLVESGGGLVQPGGSLRLSCVVSGFTFNNYWMSWVRQAPGKGLEWVANIKKDGSEKYYVDSVKGRFTISRDNAKNSLYLQMNSLRAEDTAVYYCARDIMATIIDWGQGTLVTVSS VL: DIQMTQSPSSLSASVGDSVTITCRASQSINNYLNWYQQKPGKAPKLLIYTASSLLSGVPSRFSGSGSGTDFTLTISGLHPEDFATYFCQQSFSTPPITFGQGTRLDIK | 75.6 nM | 0.00974 s⁻¹ | 129000 M⁻¹ s⁻¹ | 1.2 min
H1H11808P2 (antibody, human IgG1, V domains shown, human IgG1) VH: QVQLVESGGGVVQPGRSLRLSCAASGFPFNSYGMHWVRQAPGKGLEWVAVISYDGSNRYYADSVKGRFTISRDNSKYTLDLHVSSLTTDDTAVYYCARDRRYGKWEQLYPDYLGQGTLVTVSS VL: DIQMTQSPSSLSASVGDSVTITCRASQSINNYLNWYQQKPGKAPKLLIYTASSLLSGVPSRFSGSGSGTDFTLTISGLHPEDFATYFCQQSFSTPPITFGQGTRLDIK | ≤ 0.0563 nM | ≤ 1e-05 s⁻¹ | 178000 M⁻¹ s⁻¹ | ≥ 1160 min
H1H11835P2 (antibody, human IgG1, V domains shown, human IgG1) VH: EVQLVESGGGLVQSGGSLRLSCEASGFTFSNYWMTWIRQGPGKGLEWVANIKPDGTENYYVDSVKGRFTISRDNARNSLYLQMTSLKAEDTAVYYCGRMIQFVINIWGQGTLVTVSS VL: DIQMTQSPSSLSASVGDSVTITCRASQSINNYLNWYQQKPGKAPKLLIYTASSLLSGVPSRFSGSGSGTDFTLTISGLHPEDFATYFCQQSFSTPPITFGQGTRLDIK | 14 nM | 0.00246 s⁻¹ | 175000 M⁻¹ s⁻¹ | 4.7 min
H1H11838P2 (antibody, human IgG1, V domains shown, human IgG1) VH: QVQLVESGGGVVQPGRSLRLSCAASGFTFSSYGMHWVRQAPGKGLEWVAFMSYDGSNKFYSDSVKGRFTISRDNSRKMLFLQMNNLRAEDTAVYYCARDQYYDFLTDHGVFDYWGQGTLVTVSS VL: DIQMTQSPSSLSASVGDSVTITCRASQSINNYLNWYQQKPGKAPKLLIYTASSLLSGVPSRFSGSGSGTDFTLTISGLHPEDFATYFCQQSFSTPPITFGQGTRLDIK | 1.99 nM | 0.000471 s⁻¹ | 237000 M⁻¹ s⁻¹ | 24.5 min
